Source: patent publication US5559019A, “Protein serine kinase, SRPK1” (The Regents of the University of California, priority 1994, dated 1996)

Substrate: Nc1ncnc2c1ncn2[C@@H]1O[C@H](COP(=O)(O)OP(=O)(O)OP(=O)(O)O)[C@@H](O)[C@H]1O
Assay: SRPK1 kinase assay, determination of Km for ATP (double-reciprocal plots, SF2/ASF as substrate)
Format: biochemical, human
Conditions: other: ATP titrated against four SF2/ASF concentrations (bacterially expressed SF2/ASF as substrate), pH 7.4, 30.0 °C
Protocol: FIG. 7 describes the kinetic properties of SRPK1. […] Different ATP concentrations were titrated against four SF2/ASF concentrations (.diamond-solid.0.05 μM; .circle-solid.0.1 μM; Δ0.05 μM; .diamond.0.7 μM). […] Five SF2/ASF concentrations (0.05 μM, 0.1 μM, 0.25 μM, 0.5 μM, and 1.0 μM) and four MBP concentrations (2.5 μM, 5.0 μM, 12.5 μM, and 25 μM) were used in the phosphorylation reactions. Saturating ATP (100 μM) and SRPK1 (27,000 units) were used in these reactions.
0.5 μg of purified SC35 or SF2/ASF was used as a substrate in a final volume of 20 μl kinase assay mixture containing 50 mM Tris-pH7.4, 10 mM MgCl2, 1 mM DTT, 2 μM ATP, and 2 μCi [^32 P-]ATP. The reaction was initiated by adding 2 μl of each column fraction and incubated at room temperature for 15 min. Proteins were, resolved in a 12.5% SDS gel. After staining and autoradiography, gel slices containing radioactive proteins were quantitated in a liquid scintillation counter. For saturation phosphorylation of SF2/ASF, 100 μM ATP was used, and the reaction was carried out at 30° C. for 2 hours.
SRPK1 is specific for splicing factors containing an SR domain as shown in EXAMPLE 4. Kinetic analyses were carried out to further characterize the kinase. […] The kinase activity depended on ATP concentration with a Km for ATP of 10 μM (FIG. 7A). […]

B1: SRPK1 (SR protein-specific kinase, 92 kD) purified from Hela cell S100 extracts, SEQ ID NO:2 (Homo sapiens) (protein)
chain: MERKVLALQARKKRTKAKKDKAQRKSETQHRGSAPHSESDLPEQEEEILGSDDDEQEDPNDYCKGGYHLVKIGDLFNGRYHVIRKLGWGHFSTVWLSWDIQGKKFVAMKVVKSAEHYTETALDEIRLLKSVRNSDPNDPNREMVVQLLDDFKISGVNGTHICMVFEVLGHHLLKWIIKSNYQGLPLPCVKKIIQQVLQGLDYLHTKCRIIHTDIKPENILLSVNEQYIRRLAAEATEWQRSGAPPPSGSAVSTAPQPKPADKMSKNKKKKLKKKQKRQAELLEKRMQEIEEMEKESGPGQKRPNKQEESESPVERPLKENPPNKMTQEKLEESSTIGQDQTLMERDTEGGAAEINCNGVIEVINYTQNSNNETLRHKEDLHNANDCDVQNLNQESSFLSSQNGDSSTSQETDSCTPITSEVSDTMVCQSSSTVGQSFSEQHISQLQESIRAEIPCEDEQEQEHNGPLDNKGKSTAGNFLVNPLEPKNAEKLKVKIADLGNACWVHKHFTEDIQTRQYRSLEVLIGSGYNTPADIWSTACMAFELATGDYLFEPHSGEEYTRDEDHIALIIELLGKVPRKLIVAGKYSKEFFTKKGDLKHITKLKPWGLFEVLVEKYEWSQEEAAGFTDFLLPMLELIPEKRATAAECLRHPWLNS
notes: SRPK1 PURIFICATION FROM HELA CELL S100 EXTRACTS; endogenous in cells; host or cells: HeLa cells (S100 extract; phosphocellulose P11, Phenyl Sepharose, Mono Q, Mono S)
- Km: 10 µM
